According to patent publication US20220146515A1 (XIAMEN INNODX BIOTECH, published 2022):
Like-named read-outs stand apart in the source and are kept apart here.

Key:
Assay in all cases: competition ELISA, antibody preincubated with target, AMH-coated plate
[1] = target: T1, AMH truncated antigen 21-35 (human)
T1 peptide: GTEALRAEEPAVGTS
Procedure: (§1) 1. AMH antigen was diluted with carbonic acid buffer (20 mmol/L CB, pH 9.6) and then coated on a polyvinyl chloride plate. In the pretreatment, the antibody purified by the protein A column and the synthesized AMH truncated antigen sequences (see Table 3 for each synthetic sequence) were subjected to proportion incubation (100 ng/ml antibody: 50 ug/ml truncated antigen) for 30 minutes, that were test samples; the control sample was 100 ng/ml antibody: PBS, incubation for 30 minutes, and then the test samples after incubation and the control sample were added to AMH antigen plate and incubated for 30 minutes, the plate was washed for 5 times, added with GAM-HRP (1/5000 dilution) and incubated for 30 minutes, the plate was washed for 5 times, and the substrate was added and incubated for 15 minutes. The values under wavelength of 450/620 were read by microplate reader, and the detected OD values were finally calculated and analyzed. The calculation formula was: (control sample OD value−test sample OD value)/control sample OD value, and the criterion for determination was as follows: more than 90%, which indicated a good competitive effect, showing that the antibody should recognize the epitope.

[2] = target: T2, AMH truncated antigen 51-65 (human)
T2 peptide: QEPLCLVALGGDSNG
Procedure: as §1

[3] = target: T3, AMH truncated antigen 31-43 (human)
T3 peptide: AVGTSGLIFREDL
Procedure: as §1

[4] = target: T4, AMH truncated antigen 32-41 (human)
T4 peptide: VGTSGLIFRE
Procedure: as §1

[5] = target: T5, AMH truncated antigen 33-41 (human)
T5 peptide: GTSGLIFRE
Procedure: as §1

[6] = target: T6, AMH truncated antigen 34-41 (human)
T6 peptide: TSGLIFRE
Procedure: as §1

[7] = target: T7, AMH truncated antigen 34-45 (human)
T7 peptide: TSGLIFREDLDW
Procedure: as §1

[8] = target: T8, AMH truncated antigen 35-45 (human)
T8 peptide: SGLIFREDLDW
Procedure: as §1

[9] = target: T9, AMH truncated antigen 36-45 (human)
T9 peptide: GLIFREDLDW
Procedure: as §1

[10] = target: T10, AMH truncated antigen 36-47 (human)
T10 construct: also called human AMH36-47; AMH3647-27 (Human)
T10 peptide: GLIFREDLDWPP
Procedure: as §1

[11] = target: T11, AMH truncated antigen 37-44 (human)
T11 construct: Printed with a blank (LIFR EDLD)
T11 peptide: LIFREDLD
Procedure: as §1

[12] = target: T12, AMH truncated antigen 37-45 (human)
T12 peptide: LIFREDLDW
Procedure: as §1

[13] = target: T13, AMH truncated antigen 40-46 (human)
T13 peptide: REDLDWP
Procedure: as §1

[14] = target: T14, AMH truncated antigen 40-47 (human)
T14 peptide: REDLDWPP
Procedure: as §1

[15] = target: T15, AMH truncated antigen 41-45 (human)
T15 peptide: EDLDW
Procedure: as §1

[16] = target: T16, AMH truncated antigen 41-46 (human)
T16 peptide: EDLDWP
Procedure: as §1

[17] = target: T17, AMH truncated antigen 41-48 (human)
T17 peptide: EDLDWPPG
Procedure: as §1

[18] = target: T18, AMH truncated antigen 41-49 (human)
T18 peptide: EDLDWPPGS
Procedure: as §1

[19] = target: T19, AMH truncated antigen 42-48 (human)
T19 peptide: DLDWPPG
Procedure: as §1

[20] = target: T20, AMH truncated antigen 43-50 (human)
T20 peptide: LDWPPGSP
Procedure: as §1

[21] = target: T10, AMH truncated antigen 36-47
[22] = target: T21, AMH3647-3 (Hamster sequence) (Hamster)
T21 peptide: GLIFFEDGIWPL

[23] = target: T22, AMH3647-6 (Otolemur sequence) (Otolemur)
T22 peptide: GLIFHKDWDWQP

[24] = target: T23, AMH3647-9 (Horseshoe bat sequence) (Horseshoe bat)
T23 peptide: GLIFHQDWDWSP

[25] = target: T24, AMH3647-11 (Neotoma sequence) (Neotoma)
T24 peptide: GLIFLEDGIWPP

[26] = target: T25, AMH3647-12 (Gerbil sequence) (Gerbil)
T25 peptide: GLIFLEDGLWPP

[27] = target: T26, AMH3647-13 (Rat sequence) (Rat)
T26 peptide: GLIFLEDGVWPP

[28] = target: T27, AMH3647-15 (Guinea pig sequence) (Guinea pig)
T27 peptide: GLIFPEDQVWPP

[29] = target: T28, AMH3647-18 (Simum sequence) (Simum)
T28 peptide: GLIFRQDWDWPP

[30] = target: T29, AMH3647-22 (Mouse sequence) (Mouse)
T29 peptide: GLIFLEDELWPP

B1: monoclonal antibody C9F2-2 (antibody, V domains shown)
VH: EVQLVESGGGLVKPGGSLKLSCAASGFAFSTYDMSWVRQTPEKRLEWVAYISPGGGATYYPDTVKGRFTISRDNAKNTLYLQMTSLKSEDTAMYYCAGRRDYYGMDYWGQGTSVTVSS
VL: DVVMTQTPLSLPVSLGDQASISCRSSQSLVHSNGNTYLHWYLQKPGQSPKLLIYKVSNRFSGVPDRFSGSGSGTDFTLKISRVEAEDLGVYFCSQSTHVPWTFGGGTKLEIK
notes: Mouse hybridoma antibody purified from ascites; the tie is indirect; also called hybridoma CCTCC NO: C2018183
Q: What does the source list for B1?
A: percent inhibition [1]: 10%; percent inhibition [2]: 9%; percent inhibition [3]: 25%; percent inhibition [4]: 9%; percent inhibition [5]: 9%; percent inhibition [6]: 3%; percent inhibition [7]: 98%; percent inhibition [8]: 97%; percent inhibition [9]: 94%; percent inhibition [10]: 100%; percent inhibition [11]: 24%; percent inhibition [12]: 91%; percent inhibition [13]: -2%; percent inhibition [14]: -19%; percent inhibition [15]: 15%; percent inhibition [16]: 15%; percent inhibition [17]: -1%; percent inhibition [18]: 3%; percent inhibition [19]: 2%; percent inhibition [20]: 17%; percent inhibition [21]: 100%; percent inhibition [22]: 8%; percent inhibition [23]: 3%; percent inhibition [24]: -3%; percent inhibition [25]: 5%; percent inhibition [26]: 5%; percent inhibition [27]: 11%; percent inhibition [28]: 2%; percent inhibition [29]: 19%; percent inhibition [30]: -9%
